Data as given in patent US20160009799A1 (ORDER MADE MEDICAL RESEARCH, published 2016).

T1: SLC6A6 (solute carrier family 6 (neurotransmitter transporter, taurine), member 6) on human colorectal cancer … (human, UniProt P31641 1-620)
T1 construct: Endogenous protein on ten colorectal cancer cell lines (Caco-2, COLO201, DLD-1, HCT15, HCT116, HT-29, LoVo, SW480, SW620, WiDr); also called native SLC6A6
T1 sequence: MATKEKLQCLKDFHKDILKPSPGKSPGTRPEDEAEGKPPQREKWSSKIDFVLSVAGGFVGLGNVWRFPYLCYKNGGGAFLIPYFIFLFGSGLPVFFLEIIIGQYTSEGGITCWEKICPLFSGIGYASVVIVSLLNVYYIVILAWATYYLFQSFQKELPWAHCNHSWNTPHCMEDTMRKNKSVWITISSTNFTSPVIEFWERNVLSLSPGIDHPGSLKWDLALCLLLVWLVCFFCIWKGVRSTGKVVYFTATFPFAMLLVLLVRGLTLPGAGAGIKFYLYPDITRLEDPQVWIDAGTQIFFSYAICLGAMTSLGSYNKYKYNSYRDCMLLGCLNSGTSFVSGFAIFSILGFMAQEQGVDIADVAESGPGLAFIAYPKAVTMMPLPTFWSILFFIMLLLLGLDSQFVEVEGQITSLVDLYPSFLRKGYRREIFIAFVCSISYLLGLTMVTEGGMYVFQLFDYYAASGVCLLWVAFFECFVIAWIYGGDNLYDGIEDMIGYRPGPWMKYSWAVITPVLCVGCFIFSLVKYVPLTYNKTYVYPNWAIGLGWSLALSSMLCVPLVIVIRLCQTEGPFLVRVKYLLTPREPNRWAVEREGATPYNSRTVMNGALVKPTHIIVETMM

T2: partial protein of the extracellular region of SLC6A6 (amino acid residues 143 to 216), His tag at the … (human, UniProt P31641 143-216)
T2 construct: also called SLC6A6 partial protein for screening; recombinant protein obtained in (6); not shown: His tag added to the C-terminal end (pET32 vector)
T2 sequence: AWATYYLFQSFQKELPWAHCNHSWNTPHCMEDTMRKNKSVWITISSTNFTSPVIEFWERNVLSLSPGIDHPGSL


Key:
[1] = molecular target: T1, SLC6A6 (solute carrier family 6 …); experiment: flow cytometry on 10 colorectal cancer cell lines, antibody at 1 ug/mL
Method: Ten lines of colorectal cancer cells were each cultured to reach 90% confluency. The cells of each line were washed twice with PBS, detached with a scraper and collected into a 1.5 mL tube. 4B9b and 5H12d antibodies were each added to give a final concentration of 1 μg/mL, followed by reaction for 60 minutes. After washing twice with PBS+2% FBS, AlexaFluor 488-labeled goat anti-mouse IgG (Invitrogen) was added as a 1/1000 dilution in PBS+2% FBS, followed by reaction for 30 minutes. After washing twice with PBS+2% PBS(FBS?), the cells were analyzed by Guava Flow Cytometry (Millipore).

[2] = molecular target: T2, partial protein of the extracellular …; experiment: ELISA on plate-bound recombinant SLC6A6 partial protein, antibody 0 to 40 ug/mL
Method: The recombinant protein obtained in (6) above (10 μg/ml) was dispensed in 100 μL volumes into MaxiSorp 96-well plates (Nunc) and adsorbed onto the plates at room temperature for 1 hour. After adsorption, each well was washed with TBS-T (25 mM Tris, 150 mM NaCl, 0.05% (v/v) Tween 20, pH 7.4) and charged with skimmed milk (GIBCO), which had been diluted at a concentration of 5% with TBS-T, to conduct blocking for 30 minutes at room temperature. After each well was washed three times with 200 μL TBS-T, […] ELISA plates in a volume of 100 μL per well, followed by reaction at room temperature for 1 hour. Each well was washed three times with […] TBS-T.
For use as a secondary antibody, anti-mouse IgG polyclonal antibody-HRP label (BETHYL) was diluted 5,000-fold with TBS-T. The above antibody dilution was added in a volume of 100 μL per well and reacted at room temperature for 30 minutes. Each well was washed three times with 200 μL TBS-T. Orthophenylenediamine (Sigma) was diluted with 50 mM carbonate-citrate buffer (pH 5.0) to give a final concentration of 0.5 mg/mL and mixed with 1/10,000 volumes of 35% (w/w) aqueous hydrogen peroxide (WAKO). […] The absorbance at 492 nm was measured with a plate reader (SpectraMax Plus 384, Molecular Devices) to analyze antibody titers, which were then used for selection of mice to be used for cell fusion. […]

| Binder | binding result [1] | binding result [2] |
| --- | --- | --- |
| 4B9b antibody (produced by Mouse-Mouse hybridoma 4B9b, FERM BP-11413) (antibody, mouse IgM, V domains shown, also called anti-SLC6A6 antibody, 4B9b) VH: QVKLQQSGAELMKPGASVKISCKATGYTFSRYWIEWVKQRPGHGLEWIGEILPGSGSTNYNEKFKGKATFTADTSSNTAYMQLSSLTSEDSAVYYCARGGFLGHYGFAYWGQGTLVTVSA VL: DIQLTQSPTTMAASPGEKITITCSASSSISSNYLHWYQQKPGFSPKLLIYRTSNLASGVPARFSGSGSGTSYSLTIGTMEAEDVATYYCQQGSSIPYTFGGGTKLEIK | binds |  |
| mouse IgG1-converted anti-SLC6A6 antibody (4B9b) (antibody, V domains shown, Expressed in Cos7 cells and purified on Protein G; also called mouse IgG-converted antibody; mouse IgG-chimerized antibody) VH: QVKLQQSGAELMKPGASVKISCKATGYTFSRYWIEWVKQRPGHGLEWIGEILPGSGSTNYNEKFKGKATFTADTSSNTAYMQLSSLTSEDSAVYYCARGGFLGHYGFAYWGQGTLVTVSA VL: DIQLTQSPTTMAASPGEKITITCSASSSISSNYLHWYQQKPGFSPKLLIYRTSNLASGVPARFSGSGSGTSYSLTIGTMEAEDVATYYCQQGSSIPYTFGGGTKLEIKR |  | binds |
